Laboratory results: PMC8892085, “Molecular insights into the interaction between human nicotinamide phosphoribosyltransferase and Toll-like receptor 4” (The Journal of Biological Chemistry, 2022)

How the values were obtained:
[1] = target: T1, Toll-like receptor 4 (TLR4) (human, UniProt O00206 24-629); experiment: SPR; evanescent wave/resonant mirror optical biosensor (IAsys plus), called surface plasmon resonance by the paper; TLR4 covalently anchored (EDC/NHS) to carboxylate cuvettes, 1.3 ng/mm^2; NAMPT proteins soluble, 1 to 3 nM; PBS; 37 °C; monoexponential fit; conditions: both partners purified
T1 construct: Toll-like receptor 4 (TLR4) from the plasmid pEFBOS-TLR4 (Dr Kensuke Miyake); the introduction speaks of the extracellular domain of TLR4; human TLR4 (AAY82270.1) is named for the docking model; Cells were lysed with 0.3% Triton X-100, which may mean the whole receptor; Anchored to the sensor 'via the N terminus of the histidine tail'; also called biosensor-tethered TLR4
T1 sequence (O00206 24-629): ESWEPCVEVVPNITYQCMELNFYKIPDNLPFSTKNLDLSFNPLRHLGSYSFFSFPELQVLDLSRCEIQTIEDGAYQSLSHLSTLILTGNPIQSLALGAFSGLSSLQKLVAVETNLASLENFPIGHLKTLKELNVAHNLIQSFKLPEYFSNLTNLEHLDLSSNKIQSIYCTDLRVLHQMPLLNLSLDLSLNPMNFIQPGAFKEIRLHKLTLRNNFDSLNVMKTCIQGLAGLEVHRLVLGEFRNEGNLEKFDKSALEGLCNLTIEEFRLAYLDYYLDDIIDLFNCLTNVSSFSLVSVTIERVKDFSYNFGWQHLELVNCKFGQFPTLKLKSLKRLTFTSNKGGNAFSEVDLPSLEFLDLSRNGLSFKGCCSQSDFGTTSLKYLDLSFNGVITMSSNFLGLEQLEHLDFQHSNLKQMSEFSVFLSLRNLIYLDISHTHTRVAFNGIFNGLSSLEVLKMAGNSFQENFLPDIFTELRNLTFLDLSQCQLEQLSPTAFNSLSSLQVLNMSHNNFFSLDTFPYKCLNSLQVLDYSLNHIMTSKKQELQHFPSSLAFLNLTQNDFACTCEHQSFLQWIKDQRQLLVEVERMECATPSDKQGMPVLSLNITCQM

[2] = target: the molecule itself; experiment: SEC; Superose 12 10/300 GL, 50 mM Hepes pH 7.5, 0.3 M NaCl; proteins loaded at 0.9 mg/ml; standards BSA, ovalbumin, carbonic anhydrase

Binder | Kd [1] [nM] | koff [1] [s⁻¹] | kon [1] [M⁻¹ s⁻¹] | stoichiometry N [2]
NAMPT β-loop deletion mutant Δ(42>51) (enzyme, human, nicotinamide phosphoribosyltransferase (NAMPT), human, UniProt P43490; pET15b plasmid changed with the In-Fusion kit; the β1-β2 K-rich loop fully deleted; also called ΔK(42>51); β-loop deleted mutant; source: ClearColi BL21 (DE3), purified (Ni-NTA, PD10; ε-poly-L-lysine resin to remove endotoxin)) MNPAAEAEFNILLATDSYKVTHYKQYPPNTSKVYSYFECREVKYEETVFYGLQYILNKYLKGKVVTKEKIQEAKDVYKEHFQDDVFNEKGWNYILEKYDGHLPIEIKAVPEGFVIPRGNVLFTVENTDPECYWLTNWIETILVQSWYPITVATNSREQKKILAKYLLETSGNLDGLEYKLHDFGYRGVSSQETAGIGASAHLVNFKGTDTVAGLALIKKYYGTKDPVPGYSVPAAEHSTITAWGKDHEKDAFEHIVTQFSSVPVSVVSDSYDIYNACEKIWGEDLRHLIVSRSTQAPLIIRPDSGNPLDTVLKVLEILGKKFPVTENSKGYKLLPPYLRVIQGDGVDINTLQEIVEGMKQKMWSIENIAFGSGGGLLQKLTRDLLNCSFKCSYVVTNGLGINVFKDPVADPNKRSKKGRLSLHRTPAGNFVTLEEGKGDLEEYGQDLLHTVFKNGKVTKSYSFDEIRKNAQLNIELEAAHH | 218 | 0.07 ± 0.02 | 320000 | 2
human nicotinamide phosphoribosyltransferase (NAMPT), wildtype (enzyme, nicotinamide phosphoribosyltransferase (NAMPT), human, UniProt P43490; also called WT; HsNAMPT; source: ClearColi BL21 (DE3), purified (Ni-NTA, PD10; ε-poly-L-lysine resin to remove endotoxin)) MNPAAEAEFNILLATDSYKVTHYKQYPPNTSKVYSYFECREKKTENSKLRKVKYEETVFYGLQYILNKYLKGKVVTKEKIQEAKDVYKEHFQDDVFNEKGWNYILEKYDGHLPIEIKAVPEGFVIPRGNVLFTVENTDPECYWLTNWIETILVQSWYPITVATNSREQKKILAKYLLETSGNLDGLEYKLHDFGYRGVSSQETAGIGASAHLVNFKGTDTVAGLALIKKYYGTKDPVPGYSVPAAEHSTITAWGKDHEKDAFEHIVTQFSSVPVSVVSDSYDIYNACEKIWGEDLRHLIVSRSTQAPLIIRPDSGNPLDTVLKVLEILGKKFPVTENSKGYKLLPPYLRVIQGDGVDINTLQEIVEGMKQKMWSIENIAFGSGGGLLQKLTRDLLNCSFKCSYVVTNGLGINVFKDPVADPNKRSKKGRLSLHRTPAGNFVTLEEGKGDLEEYGQDLLHTVFKNGKVTKSYSFDEIRKNAQLNIELEAAHH | 17.8 | 0.005 ± 0.001 | 280000 | 2
NAMPT β-loop double mutant K(42/48)A (enzyme, human, nicotinamide phosphoribosyltransferase (NAMPT), human, UniProt P43490; mutagenised pET15b plasmid; K42 and K48 replaced with alanine; source: ClearColi BL21 (DE3), purified (Ni-NTA, PD10; ε-poly-L-lysine resin to remove endotoxin)) MNPAAEAEFNILLATDSYKVTHYKQYPPNTSKVYSYFECREAKTENSALRKVKYEETVFYGLQYILNKYLKGKVVTKEKIQEAKDVYKEHFQDDVFNEKGWNYILEKYDGHLPIEIKAVPEGFVIPRGNVLFTVENTDPECYWLTNWIETILVQSWYPITVATNSREQKKILAKYLLETSGNLDGLEYKLHDFGYRGVSSQETAGIGASAHLVNFKGTDTVAGLALIKKYYGTKDPVPGYSVPAAEHSTITAWGKDHEKDAFEHIVTQFSSVPVSVVSDSYDIYNACEKIWGEDLRHLIVSRSTQAPLIIRPDSGNPLDTVLKVLEILGKKFPVTENSKGYKLLPPYLRVIQGDGVDINTLQEIVEGMKQKMWSIENIAFGSGGGLLQKLTRDLLNCSFKCSYVVTNGLGINVFKDPVADPNKRSKKGRLSLHRTPAGNFVTLEEGKGDLEEYGQDLLHTVFKNGKVTKSYSFDEIRKNAQLNIELEAAHH | 37.1 | 0.029 ± 0.003 | 780000 | 2
NAMPT α-loop triple mutant K(68>73)A (enzyme, human, nicotinamide phosphoribosyltransferase (NAMPT), human, UniProt P43490; mutagenised pET15b plasmid; source: ClearColi BL21 (DE3), purified (Ni-NTA, PD10; ε-poly-L-lysine resin to remove endotoxin)) MNPAAEAEFNILLATDSYKVTHYKQYPPNTSKVYSYFECREKKTENSKLRKVKYEETVFYGLQYILNAYLAGAVVTKEKIQEAKDVYKEHFQDDVFNEKGWNYILEKYDGHLPIEIKAVPEGFVIPRGNVLFTVENTDPECYWLTNWIETILVQSWYPITVATNSREQKKILAKYLLETSGNLDGLEYKLHDFGYRGVSSQETAGIGASAHLVNFKGTDTVAGLALIKKYYGTKDPVPGYSVPAAEHSTITAWGKDHEKDAFEHIVTQFSSVPVSVVSDSYDIYNACEKIWGEDLRHLIVSRSTQAPLIIRPDSGNPLDTVLKVLEILGKKFPVTENSKGYKLLPPYLRVIQGDGVDINTLQEIVEGMKQKMWSIENIAFGSGGGLLQKLTRDLLNCSFKCSYVVTNGLGINVFKDPVADPNKRSKKGRLSLHRTPAGNFVTLEEGKGDLEEYGQDLLHTVFKNGKVTKSYSFDEIRKNAQLNIELEAAHH | 1280 | 0.004 ± 0.002 | 3100 | 2
NAMPT α-loop double mutant K(68/71)S (enzyme, human, nicotinamide phosphoribosyltransferase (NAMPT), human, UniProt P43490; mutagenised pET15b plasmid; K68 and K71 replaced with serine; source: ClearColi BL21 (DE3), purified (Ni-NTA, PD10; ε-poly-L-lysine resin to remove endotoxin)) MNPAAEAEFNILLATDSYKVTHYKQYPPNTSKVYSYFECREKKTENSKLRKVKYEETVFYGLQYILNSYLSGKVVTKEKIQEAKDVYKEHFQDDVFNEKGWNYILEKYDGHLPIEIKAVPEGFVIPRGNVLFTVENTDPECYWLTNWIETILVQSWYPITVATNSREQKKILAKYLLETSGNLDGLEYKLHDFGYRGVSSQETAGIGASAHLVNFKGTDTVAGLALIKKYYGTKDPVPGYSVPAAEHSTITAWGKDHEKDAFEHIVTQFSSVPVSVVSDSYDIYNACEKIWGEDLRHLIVSRSTQAPLIIRPDSGNPLDTVLKVLEILGKKFPVTENSKGYKLLPPYLRVIQGDGVDINTLQEIVEGMKQKMWSIENIAFGSGGGLLQKLTRDLLNCSFKCSYVVTNGLGINVFKDPVADPNKRSKKGRLSLHRTPAGNFVTLEEGKGDLEEYGQDLLHTVFKNGKVTKSYSFDEIRKNAQLNIELEAAHH | 20.8 | 0.01 ± 0.004 | 480000 | 2
NAMPT β-loop full mutant K/R(42>51)A (enzyme, human, nicotinamide phosphoribosyltransferase (NAMPT), human, UniProt P43490; mutagenised pET15b plasmid; the entire set of positive residues of the β1-β2 K-rich loop (residues 42-51) replaced with alanine; source: ClearColi BL21 (DE3), purified (Ni-NTA, PD10; ε-poly-L-lysine resin to remove endotoxin)) MNPAAEAEFNILLATDSYKVTHYKQYPPNTSKVYSYFECREAATENSALAAVKYEETVFYGLQYILNKYLKGKVVTKEKIQEAKDVYKEHFQDDVFNEKGWNYILEKYDGHLPIEIKAVPEGFVIPRGNVLFTVENTDPECYWLTNWIETILVQSWYPITVATNSREQKKILAKYLLETSGNLDGLEYKLHDFGYRGVSSQETAGIGASAHLVNFKGTDTVAGLALIKKYYGTKDPVPGYSVPAAEHSTITAWGKDHEKDAFEHIVTQFSSVPVSVVSDSYDIYNACEKIWGEDLRHLIVSRSTQAPLIIRPDSGNPLDTVLKVLEILGKKFPVTENSKGYKLLPPYLRVIQGDGVDINTLQEIVEGMKQKMWSIENIAFGSGGGLLQKLTRDLLNCSFKCSYVVTNGLGINVFKDPVADPNKRSKKGRLSLHRTPAGNFVTLEEGKGDLEEYGQDLLHTVFKNGKVTKSYSFDEIRKNAQLNIELEAAHH | 630 | 0.085 ± 0.023 | 130000 | 2
